The nature of this series: label from the status in PepcDB records.

The source of these data is a protein production outcome set (Wang et al. 2014).

On to “AADERVKEMWAYSPSMDRNVPLVVITADESAGPRPVIYLLNGGDGGEGAANWVMQTDVLDFYLEKNVNVVIPMEGKFSYYTDWVEENASLGGKQMWETFLVKELPGPLEEKLNTDGQRAIAGMSMSATTSLLFPQHFPGFYDAAASFSGCAATSSLLPWEYLKLTLDRGNATPEQMWGPRGGEYNIYNDALINSDKLRGTELYVSNASGLAGEWESVDSPRFEGLNQQVQSIAMAETVVTGGIIEAATNKCTHDLKAKLDSAGIPADWNLRPTGTHSWGWWQDDLRGSWTTFARAFEL”, for which the protein production entry is listed as “failed”.
In the case of “AAGAVRTDPVIHLHGSRSEDEPTTVLVHAGTATIMPYRALITEIRRRSPGLAEVVGVEVPDLSGFLAAPPDGLIERMAADYARALTADGRHRFHVVGYCLGGLIATEVARNLAESGAEVESLTVISSHSPRFRLDDELLAEYSFAVMMGIDPADLGFPDDQYRVAAAADTVLAASPGVLPDGGLAALGGEFEDVASRFRRLADVPRATRIARMCEAVPASAGTYEPDHMTRLFLAFRQSVFAITRYRAEPYAGDITFLRHDGAYPFPGSKDAVTAYWEELTLGDLDIVDIGGDHYSCLSVEHAPGILKTLGELTQGAITR”, the protein production result is “failed”.
Regarding “AARNLSKEEYAANHPAGRIGKSLIFKVKDVMKKQEELPVCKEGDLIMDQLVELTSKGCGCLLVVDEHSRLIGTFTDGDLRRTLKASGEAIFKLSVGEMCNRKPRTIGPETMAVEAMKKMESPPSPVQFLPVVNEDNTLIGIVTLHGLVSA”, the protein production result was “failed”.
With “ACEQNEDWVVNEPMQSFEENPEYAPLNTIPDWVSEKVTPKEYELWRTMSSRYEINYSFLKKDISEKRKKEIYDCINNICERIEKGQINKYEGFLNIADEDGTTLSDSQYFGRIATRSPEGGAEYKTNGCTLYTHSLGPYIKAAVTYKKSDDDVTITSSSVYTGSPYLGNDPSFSGASSVSYDKDKKLIAASCSGTLSFKDGSRKVEVTVQKTGFMIP”, the protein production entry is “not failed”.
The entry for “ADKFTFIGFLSKKDSEQKKQLEELMPLDSTLIFYESPFRVGKTLENVRAIFGEKTKVVLARELTKKFESYYRGDITQALNFIKSNRPRGEFVLLIKKIHEA” is “failed”; for “AEIVEGRDYTVLSAPQPTEGDSEHIEVIEFFWYGCPHCSDLHPHLSRWLENKPADVAFRFVPAILRNNWVPGAKTFYAMESLGLTQTLHDKVYHAIHREKTDLSKEATLFDWIGKQGVDRDKFIGAYNSFTVQNQANRSAQMIRQYKLTGVPALVVDGRYLTSGKAGGTPQDTISVLNQLIEK” it is “failed”.
The entry for “AEMKTYSHRTMPSACTLVMCSSVESGLPGRDGRDGREGPRGEKGDPGLPGAAGQAGMPGQAGPVGPKGDNGSVGEPGPKGDTGPSGPPGPPGVPGPAGREGPLGKQGNIGPQGKPGPKGEAGPKGEVGAPGMQGSAGARGLAGPKGERGVPGERGVPGNTGAAGSAGAMGPQGSPGARGPPGLKGDKGIPGDKGAKGESGLPDVASLRQQVEALQGQVQHLQAAFSQYKKVELFPNGQSVGEKIFKTAGFVKPFTEAQLLCTQAGGQLASPRSAAENAALQQLVVAKNEAAFLSMTDSKTEGKFTYPTGESLVYSNWAPGEPNDDGGSEDCVEIFTNGKWNDRACGEKRLVVCEF” is “failed”; for “AGGEDRGDGEPVSVVTVRVQYLEDTDPFACANFPEPRRAPTCSLDGALPLGAQIPAVHRLLGAPLKLEDCALQVSPSGYYLDTELSLEEQREMLEGFYEEISKGRKPTLILRTQLSVRVNAILEKLYSSSGPELRRSLFSLKQIFQEDKDLVPEFVHSEGLSCLIRVGAAADHNYQSYILRALGQLMLFVDGMLGVVAHSDTIQWLYTLCASLSR” it is “failed”.
To “AGVMTGAKFTQIQFGMTRQQVLDIAGAENCETGGSFGDSIHCRGHAAGDYYAYATFGFTSAAADAKVDSKSQEKLLAPSAPTLTLAKFNQVTVGMTRAQVLATVGQGSCTTWSEYYPAYPSTAGVTLSLSCFDVDGYSSTGAYRGSAHLWFTDGVLQGKRQWDLV” belongs “not failed”; to “AGVSISAQNLIKNEKFATEVTNKVTNPSKATAGEWFIMNNEADGVTTIAWEQTGDAKYPNAMKIDNSGAEKNTSWYKAFLGQRITDGLEKGIYVLTFYAKAKEAGTPVSVYIKQTNEEKNDNGKLNTTFFMRRDYDADAQPNASGAQYNFKIKDADKWTKVVVYYDMGQVVNAISSKKSNPALEVSDTDDDAAILKDCYVAILGQNKGGVVEISDVTLKKK”, “not failed”.
